Measured values: patent US20260078146A1, “EPHA2 TARGETING AGENTS AND USES THEREOF” (The Regents of the University of California, priority 2022, published 2026)
Each block holds one molecule with its values, some of them ahead of it. *1 amine or outer side, *2 acyl side, *3 side chain or, on linkers, in order; H or OH if unused. Where no end group is shown, it is not given here. [ ]: non-standard residue; d: D form. The star is where a group is joined. 2‑CF3‑Bip = 4-(2-trifluoromethylphenyl)-L-phenylalanine, O=C([C@H](Cc1ccc(-c2ccccc2C(F)(F)F)cc1)N[*:1])[*:2]; Phe(2-NH2) = O=C([C@H](Cc1ccccc1N[*:3])N[*:1])[*:2]; Acetyl(2-(piperazin-1-yl)) = O=C(CN1CCNCC1)*; Chg = N[C@H](C(=O)O)C1CCCCC1; GABA = NCCCC(=O)O; βAla = NCCC(=O)O

How the values were obtained:
[1] = 8 mg/Kg daily, IV, Balb/C mice, 3 mice
MIA PaCa-2 tumors = assay: Tumor xenograft with MIA PaCa-2 cells; format: in vivo, nu/nu mice
[2] = biological target: T1, EphA2 ligand binding domain (EphA2-LBD), recombinant (UniProt P29317 27-200, limits assumed); assay: ITC
T1 construct: also called EphA2 protein; isolated EphA2-LBD

[3] = biological target: T1, EphA2 ligand binding domain …; assay: DELFIA displacement; competitor: immobilised 123B9-Biotin
[4] = dose equivalent to […] of PTX (targefrin-PTX 10 mg/Kg, targefrin-dimer-PTX 17 mg/kg), IV days 1, 4, 8, 11, 15, 18, compared to untreated and PTX groups

T1 sequence (P29317 27-200 limits assumed): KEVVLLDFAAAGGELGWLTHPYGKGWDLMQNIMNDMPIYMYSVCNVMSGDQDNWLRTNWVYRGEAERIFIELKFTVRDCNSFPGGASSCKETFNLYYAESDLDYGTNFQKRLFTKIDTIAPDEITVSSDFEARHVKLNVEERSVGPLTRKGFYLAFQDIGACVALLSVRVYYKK

Molecule: CC(=O)O[C@H]1C(=O)[C@@]2(C)[C@H]([C@H](OC(=O)c3ccccc3)[C@]3(O)C[C@H](OC(=O)[C@H](O)[C@@H](NC(=O)c4ccccc4)c4ccccc4)C(C)=C1C3(C)C)[C@]1(OC(C)=O)CO[C@@H]1C[C@@H]2O [PTX, paclitaxel, reference compound]
mice found dead after the 2nd dose [1]: 2 of 3

Molecule: CC(=O)O[C@H]1C(=O)[C@@]2(C)[C@H]([C@H](OC(=O)c3ccccc3)[C@]3(O)C[C@H](OC(=O)[C@H](OC(=O)CCCCCn4cc(CCCC(=O)NCCCC[C@H](NC(=O)CNC(=O)[C@H](CCCCNC(=O)CNC(=O)[C@@H]5CCCN5C(=O)[C@@H](CCCNC(=N)N)NC(=O)[C@@H](Cc5ccccc5)NC(=O)[C@H]5CCCN5C(=O)[C@H](NC(=O)[C@@H](C)NC(=O)[C@@H](CC(=O)O)NC(=O)[C@@H]5CCCN5C(=O)[C@H](Cc5ccc(-c6ccccc6C(F)(F)F)cc5)NC(=O)[C@H](C)NC(=O)[C@H](CC(C)C)NC(=O)[C@H](Cc5ccc(N)cc5)NC(=O)CN5CCNCC5)C5CCCCC5)NC(=O)CNC(=O)[C@@H]5CCCN5C(=O)[C@H](CCCNC(=N)N)NC(=O)[C@H](Cc5ccccc5)NC(=O)[C@@H]5CCCN5C(=O)[C@@H](NC(=O)[C@H](C)NC(=O)[C@H](CC(=O)O)NC(=O)[C@@H]5CCCN5C(=O)[C@H](Cc5ccc(-c6ccccc6C(F)(F)F)cc5)NC(=O)[C@@H](C)NC(=O)[C@@H](CC(C)C)NC(=O)[C@@H](Cc5ccc(N)cc5)NC(=O)CN5CCNCC5)C5CCCCC5)C(N)=O)nn4)[C@@H](NC(=O)c4ccccc4)c4ccccc4)C(C)=C1C3(C)C)[C@]1(OC(C)=O)CO[C@@H]1C[C@@H]2O [targefrin-dimer-PTX, [PiperazAcAcid-(2-NH2-Phe)-L-A-(2-CF3-Bip)-PD-A-Chg-PFRPG]2-KGK-(Linker)-PTX]
antitumor effect (tumor volume) (MIA PaCa-2 tumors; [4]): significant antitumor effect
antitumor effect (tumor volume) (MIA PaCa-2 tumors; lower dose 10 mg/kg, equivalent to 1.5 mg/kg of PTX, compared to PTX […] group): more effective than the PTX treated group

Molecule: PiperazAcAcid-(2-NH2-Phe)-L-A-(2-CF3-Bip)-PD-A-Chg-PFRPG-K-(Linker)-PTX (XLAXPDAXPFRPGK; not fully specified; non-natural residues) [targefrin-PTX]
antitumor effect (tumor volume) (MIA PaCa-2 tumors; [4]): significant antitumor effect

-TΔS [2]: 9.7 kcal/mol
ΔH [2]: -20.2 kcal/mol
B1: targefrin (agent 27) (peptide)
peptide: XLAXPDAXPFRP
modifications: N-terminal PiperazAcAcid cap; X1 = 2NH2-Phe; X4 = 2-CF3-Bip; X8 = Chg; C-terminal CONH2
notes: also called targefrin monomer; monomeric version of targefrin

IC50 [3]: 5.3 nM
B2: dimeric targefrin agent 30 (n = 3, GABA spacer) (peptide)
peptide: {Acetyl(2-(piperazin-1-yl))}-[Phe(2-NH2)]LA[2‑CF3‑Bip]PDA[Chg]PFRP[GABA]
chain: Lys-NH2
modifications: also: branching Lys carries a second identical arm (dimer)

IC50 [3]: 6.5 nM
B3: targefrin-dimer (agent 28, n = 1, Gly-Lys linker) (peptide)
peptide: XLAXPDAXPFRPG
chain: K
modifications: branching Lys that carries one arm on each of its two amines; C-terminal CONH2; N-terminal PiperazAcAcid cap; X1 = 2-NH2-Phe; X4 = 2-CF3-Bip; X8 = Chg; the C-terminal Gly is joined to an amine of the branching Lys

IC50 [3]: 7.6 nM
B4: dimeric targefrin agent 29 (n = 2, β-Ala spacer) (peptide)
peptide: {Acetyl(2-(piperazin-1-yl))}-[Phe(2-NH2)]LA[2‑CF3‑Bip]PDA[Chg]PFRP[βAla]
chain: Lys-NH2
modifications: also: branching Lys carries a second identical arm (dimer)
